Biological target: phospho-Ser 2 carboxy-terminal domain (CTD) RNA polymerase II (human (endogenous in hSAECs)), P24928
Assay: proximity ligation; Duolink in situ PLA, mouse anti-IRF1 and rabbit anti-pSer2 Pol II Abs, fixed and permeabilized hSAECs, mock or RSV infected (MOI 1, 24 h), solvent
Conditions: remark: other sources report otherwise

PLA foci/nucleus (RSV infected): 24 foci/nucleus | PLA foci/nucleus (mock infected): 6.3 foci/nucleus | fold increase of PLA complex, RSV against mock: 25 fold | percent of cells with PLA complexes (uninfected): > 90 % of cells
B1: interferon regulatory factor 1 (IRF1), P10914 1-325 (natural protein)
chain: MPITRMRMRPWLEMQINSNQIPGLIWINKEEMIFQIPWKHAAKHGWDINKDACLFRSWAIHTGRYKAGEKEPDPKTWKANFRCAMNSLPDIEEVKDQSRNKGSSAVRVYRMLPPLTKNQRKERKSKSSRDAKSKAKRKSCGDSSPDTFSDGLSSSTLPDDHSSYTVPGYMQDLEVEQALTPALSPCAVSSTLPDWHIPVEVVPDSTSDLYNFQVSPMPSTSEATTDEDEEGKLPEDIMKLLEQSEWQPTNVDGKGYLLNEPGVQPTSVYGDFSCKEEPEIDSPGGDIGLSLQRVFTDLKNMDATWLDSLLTPVRLPSIQAIPCAP
modifications: here or on the partner: phospho-Ser 2 of the carboxy-terminal domain (CTD)

From paper PMC11004252
